Results as given in patent publication US20250333503A1 (COMPUGEN, published 2025).

T1: human PVRIG (Poliovirus Receptor Related Immunoglobulin Domain Containing Protein) (human, UniProt Q6DKI7 41-326)
T1 construct: whole, on cells; on HEK293 over-expressing cells (some pools flag-tagged), Jurkat, CA46 or primary T cells; also called hPVRIG; C7orf15
T1 sequence (looked up): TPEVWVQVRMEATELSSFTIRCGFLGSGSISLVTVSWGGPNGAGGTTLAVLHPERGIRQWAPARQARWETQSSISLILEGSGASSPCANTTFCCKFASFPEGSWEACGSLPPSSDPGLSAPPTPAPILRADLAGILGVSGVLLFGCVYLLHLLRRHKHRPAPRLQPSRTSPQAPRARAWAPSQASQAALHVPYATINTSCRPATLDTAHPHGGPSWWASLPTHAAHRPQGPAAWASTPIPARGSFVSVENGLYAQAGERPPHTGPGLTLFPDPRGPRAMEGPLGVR

B1: CPA.7.021 IgG conjugated with Alexa 647 (antibody, V domains shown)
VH: EVQLVESGGGVVKPGGSLRLSCAASGFTFGTSSMNWVRQAPGKGLEWVAVISFDGTEIHYADSVKGRFTISRDNSKSTVFLQMNSLRPDDTALYYCAKGSGNIYFYSGMDVWGQGTTVTVSS
VL: DIQMTQSPSTLSASVGDRVTITCRAGQSISGWLAWFQQKPGKAPNLLIYETSTLESGVPSRFSGSGSGTEYTLTISSLQPDDFATYYCQQYYSYPLTFGQGTKVEIK
B2: mouse PVRL2-his (ligand, UniProt P32507 32-351, looked up)
chain: QDVRVRVLPEVRGRLGGTVELPCHLLPPTTERVSQVTWQRLDGTVVAAFHPSFGVDFPNSQFSKDRLSFVRARPETNADLRDATLAFRGLRVEDEGNYTCEFATFPNGTRRGVTWLRVIAQPENHAEAQEVTIGPQSVAVARCVSTGGRPPARITWISSLGGEAKDTQEPGIQAGTVTIISRYSLVPVGRADGVKVTCRVEHESFEEPILLPVTLSVRYPPEVSISGYDDNWYLGRSEAILTCDVRSNPEPTDYDWSTTSGVFPASAVAQGSQLLVHSVDRMVNTTFICTATNAVGTGRAEQVILVRESPSTAGAGATGG
notes: also called His-tagged PVRL2; his-tagged mouse PVLR2

Tests used:
[1] = biological target: T1, human PVRIG (Poliovirus Receptor …); assay: FACS on Jurkat cells after PVRIG siRNA knock down
[2] = biological target: T1, human PVRIG (Poliovirus Receptor …); assay: FACS on Jurkat cells transfected with scrambled siRNA
[3] = biological target: T1, human PVRIG (Poliovirus Receptor …); assay: flow cytometry equilibrium titration on HEK 293 cells expressing human PVRIG, 1:1 fit
[4] = biological target: T2, mouse PVRIG on HEK293 over-expressing cells (mouse); assay: FACS, 60 µg/ml on HEK293 OX mouse PVRIG; one of two sources
T2 construct: whole, on cells; also called HEK293 OX mouse PVRIG; mouse PVRIG-FLAG

Binder | fold change (anti PVRIG vs isotype control) [1] [fold] | fold change (anti PVRIG vs isotype control) [2] [fold] | Kd [3] [nM] | fold binding vs empty vector cells [4] [fold]
B1 | 2.8 | 15.3 | 2.5 | –
B2 | – | – | – | 2
